Laboratory results: PMC3018327 (Nature immunology, 2010)

Biological target: soluble HLA-DM, wild type (DM WT) (human) (UniProt P28067)
Experiment: SPR

DR1 (DRα V65C) with disulfide-linked HA6 P2-P11 peptide (from UniProt P01903) (peptide-MHC)
Kd: 1000 nM
percent of maximal DM binding at pH 7.0: 40%
